What was measured:
[1] = molecular target: T1, TGFβ1 (Homo sapiens, UniProt P01137 P01137:279-390); assay: cell_activity; second value 201 nM; details: tags: Genentech or R&D Systems; chain copies: 2;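 further: inhibition of TGFβ1-induced luciferase reporter expression in mink lung epithelial cells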
Protocol: (§1) Mink lung epithelial cells (MLEC) carrying the Pail/luc construct were maintained in DME containing 10% fetal bovine serum and 400 μg/ml G418. MLEC-Pail/luc cells were plated at 3.2×10⁴ cells per well in a 96 well Falcon plate, in 100 μl of DME+10% fetal bovine serum overnight. Media was made from autoclaved water. The cells were washed three times ([…]) in serum free DME plus Solution A (1:1). Solution A is 30 mM Hepes pH 7.6, 10 mM glucose, 3.0 mM KCl, 131 mM NaCl, 1.0 mM disodium phosphate. Samples (100 μl) were added in DME containing 20 mM Hepes pH 7.5, and 0.1% BSA (Fluka, radioimmunoassay grade). All samples were in triplicate. After six hours at 37° C. in a 5% CO₂ incubator the media was removed and cells were washed three times (100 μl each) in cold PBS. Lysis buffer (75 μl) (Analytical Luminescence Laboratory) was added and the plates incubated on ice for 20 min. The plates were sealed and frozen at −80° C. until assayed. Samples (25 μl) were assayed for luciferase activity with the Enhanced Luciferase Assay Kit from Analytical Luminescence Laboratory (San Diego, Calif., USA) according to the manufacturer's instructions using the Berthold Microlumat LB96P luminometer.
(§2) Ligands tested for inhibition of TGFβ1 activity were tested at a minimum of five concentrations. […]

[2] = molecular target: T1, TGFβ1; assay: cell_activity; second value 157 nM; details: tags: Genentech or R&D Systems; chain copies: 2;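 further: inhibition of TGFβ1-induced luciferase reporter expression in mink lung epithelial cells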
Protocol: as §1, §2

[3] = molecular target: T1, TGFβ1; assay: filter; 37 C; cell IC50 20 and 157 nM; details: tags: Genentech; biotinylated version used in bead assay; chain copies: 2
[4] = molecular target: T1, TGFβ1; assay: filter; boundary experiment; details: tags: Genentech or R&D Systems; chain copies: 2
[5] = molecular target: PDGF-BB (Homo sapiens, UniProt P01127 P01127:82-190); assay: competition; PDGF alpha-receptor PAE cells, 4 C; mitogenic half-maximal 2.5 nM; details: tags: R&D Systems, E. coli; chain copies: B chain dimer; three-way helix junction
[6] = molecular target: T1, TGFβ1; assay: cell_activity; second value 112 nM; details: tags: Genentech or R&D Systems; chain copies: 2;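 further: inhibition of TGFβ1-induced luciferase reporter expression in mink lung epithelial cells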
Protocol: as §1, §2

[7] = molecular target: T1, TGFβ1; assay: cell_activity; also 108 and 69 nM; stimulates at low concentration; details: tags: Genentech or R&D Systems; chain copies: 2;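 further: inhibition of TGFβ1-induced luciferase reporter expression in mink lung epithelial cells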
Protocol: as §1, §2

[8] = molecular target: T1, TGFβ1; assay: filter; second determination 0.2 nM; cell IC50 69-109 nM; details: tags: Genentech; biotinylated version used in bead assay; chain copies: 2
[9] = molecular target: T1, TGFβ1; assay: cell_activity; PAI-luciferase MLEC, n=4; details: tags: Genentech or R&D Systems; chain copies: 2
Protocol: as §1, §2

T1 sequence (P01137 279-390, one chain of several): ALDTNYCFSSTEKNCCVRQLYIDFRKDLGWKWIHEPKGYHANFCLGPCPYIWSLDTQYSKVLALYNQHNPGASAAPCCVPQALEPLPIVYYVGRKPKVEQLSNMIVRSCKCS
Chain of PDGF-BB (P01127 82-190, one chain of several): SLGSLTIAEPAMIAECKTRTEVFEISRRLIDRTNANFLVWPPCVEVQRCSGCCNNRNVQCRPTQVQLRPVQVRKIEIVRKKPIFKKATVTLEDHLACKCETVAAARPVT

B1: lib2-6-1-81 (ssRNA)
RNA: GGGGGAGAACGCGGAUCCUGUCUCCACCGCCGAUACUGGGGUUCCUGGGGCCCCUCCAUGCAGGAGGGGGGUGGUUCGGAG
modifications: 2'-NH2-U, 2'-F-C
IC50 [1]: 298 nM

B2: lib4-32 (ssRNA)
RNA: GGGGGAGAACGCGGAUCCGGCAACCCCAGGCGCAUAGCUUCCGAGUAGACAGGCGGGAGGGGUGGAUGUGGCGUCACGAGGAAGCUUCGCUCUAGAUCUCCCUUUAGUGAGGGUUA
modifications: 2'-NH2 pyrimidines
IC50 [2]: 20 nM | Kd [3]: 0.8 nM

CUUCCGAGUAGACAGGAGGGAGGGGUGGAUGUGGCGUCUACUC (ssRNA) [lib8-9 boundaries]
binding result [4]: binds

CACAGGCTACGGCACGTAGAGCATCACCATGATCCTGTGT (ssDNA, 3'-3' idT) [36t]
IC50 [5]: ~1 nM

B3: lib2-6-1 (ssRNA)
RNA: GGGGGAGAACGCGGAUCCUGUCUCCACCGCCGAUACUGGGGUUCCUGGGGCCCCUCCAUGCAGGAGGGGGGUGGUUCGGAGAAAGCUUCGCUCUAGAUCUCCCUUUAGUGAGGGUUA
modifications: 2'-NH2-U, 2'-F-C
IC50 [6]: 103 nM

B4: lib4-12 (ssRNA)
RNA: GGGGGAGAACGCGGAUCCUGAGAAGGACGUCGGGGUCAACGGGGUGAGGUGCAGCAGAAAGGGCCGGCACCACAUGACGUAAAAGCUUCGCUCUAGAUCUCCCUUUAGUGAGGGUUA
modifications: 2'-NH2 pyrimidines
IC50 [7]: 109 nM | Kd [8]: 0.4 nM

B5: lib3-13 (ssRNA)
RNA: GGGGGAGAACGCGGAUCCGAGCAAUCCCAGGCGCAUAGCUUCCGAGUAGACAGGAGGGAGGGGUGGAUGUGGCGUCUACUCGGUGUCGUGAAGCUUCGCUCUAGAUCUCCCUUUAGUGAGGGUUA
modifications: 2'-NH2 pyrimidines
IC50 [9]: 25 nM

Reference: US20030180744, “High affinity oligonucleotide ligands to growth factors” (GILEAD SCIENCES, INC., published 2003)
